Laboratory results taken from publication PMC9482650, “Quantitative fragmentomics allow affinity mapping of interactomes” (Nature Communications, 2022).

How the values were obtained:
Test in all cases: holdup assay
Conditions in all cases: plain residues with an end cap or a label only (N-terminal biotin on a linker: (peg)3)
Inadl_7, Q8NI35 = target: Inadl_7, Q8NI35
PDZD7_2, Q9H5P4 = target: T1, PDZD7_2, Q9H5P4
T1 sequence (Q9H5P4 205-303, limits assumed, looked up): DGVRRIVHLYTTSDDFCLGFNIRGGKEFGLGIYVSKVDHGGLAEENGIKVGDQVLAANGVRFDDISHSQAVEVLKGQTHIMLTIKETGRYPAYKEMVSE

MAGI1_3, Q96QZ7 = target: MAGI1_3, Q96QZ7
MPDZ_3, O75970 = target: T2, MPDZ_3, O75970
T2 sequence (O75970 372-473, limits assumed, looked up): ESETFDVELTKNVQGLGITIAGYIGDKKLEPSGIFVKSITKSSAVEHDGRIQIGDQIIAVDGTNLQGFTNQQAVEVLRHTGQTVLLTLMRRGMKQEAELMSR

MAGI3_6, Q5TCQ9 = target: MAGI3_6, Q5TCQ9
PDZD11, Q5EBL8 = target: T3, PDZD11, Q5EBL8
T3 sequence (Q5EBL8 42-139, limits assumed, looked up): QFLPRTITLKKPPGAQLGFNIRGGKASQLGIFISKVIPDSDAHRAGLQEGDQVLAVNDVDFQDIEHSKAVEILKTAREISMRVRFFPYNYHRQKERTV

SNTB2, Q13425 = target: T4, SNTB2, Q13425
T4 sequence (Q13425 110-208, limits assumed, looked up): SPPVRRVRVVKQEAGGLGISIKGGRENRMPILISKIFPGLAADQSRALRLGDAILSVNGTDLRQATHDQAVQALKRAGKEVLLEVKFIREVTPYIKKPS

MAGI1_6, Q96QZ7 = target: MAGI1_6, Q96QZ7
CNKSR1, Q969H4 = target: T5, CNKSR1, Q969H4
T5 sequence (Q969H4 191-295, limits assumed, looked up): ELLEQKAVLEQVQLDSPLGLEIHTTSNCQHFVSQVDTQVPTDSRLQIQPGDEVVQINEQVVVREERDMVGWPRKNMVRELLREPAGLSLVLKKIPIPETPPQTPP

LIMK1, P53667 = target: LIMK1, P53667
SYNJ2BP, P57105 = target: T6, SYNJ2BP, P57105
T6 sequence (P57105 8-110, limits assumed, looked up): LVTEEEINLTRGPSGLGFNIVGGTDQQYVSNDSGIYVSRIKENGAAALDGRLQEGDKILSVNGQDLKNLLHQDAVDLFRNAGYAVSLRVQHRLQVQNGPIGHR

PTPN13_2, Q12923 = target: PTPN13_2, Q12923
TJP3_2, O95049 = target: T7, TJP3_2, O95049
T7 sequence (O95049 190-282, limits assumed, looked up): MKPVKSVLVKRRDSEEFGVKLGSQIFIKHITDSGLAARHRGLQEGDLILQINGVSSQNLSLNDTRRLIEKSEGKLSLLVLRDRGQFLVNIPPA

GORASP1, Q9BQQ3 = target: GORASP1, Q9BQQ3
SYNPO2L, Q9H987 = target: T8, SYNPO2L, Q9H987
T8 sequence (Q9H987 1-98, limits assumed, looked up): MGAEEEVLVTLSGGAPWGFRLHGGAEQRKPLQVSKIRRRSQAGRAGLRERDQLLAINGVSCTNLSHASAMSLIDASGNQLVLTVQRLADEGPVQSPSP

RGS3, P49796-9 = target: RGS3, P49796-9
PREX1_1, Q8TCU6 = target: PREX1_1, Q8TCU6
USH1C_1, Q9Y6N9 = target: T9, USH1C_1, Q9Y6N9
T9 sequence (Q9Y6N9 82-179, limits assumed, looked up): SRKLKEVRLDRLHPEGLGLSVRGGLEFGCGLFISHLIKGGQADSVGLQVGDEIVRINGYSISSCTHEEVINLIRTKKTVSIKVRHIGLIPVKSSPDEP

CARD14, Q9BXL6 = target: CARD14, Q9BXL6
PDZD2_5, O15018 = target: T10, PDZD2_5, O15018
T10 sequence (O15018 2617-2716, limits assumed, looked up): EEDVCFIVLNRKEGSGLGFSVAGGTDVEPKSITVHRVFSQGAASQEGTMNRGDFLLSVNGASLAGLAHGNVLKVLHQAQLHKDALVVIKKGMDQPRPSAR

LNX2_4, Q8N448 = target: T11, LNX2_4, Q8N448
T11 sequence (Q8N448 595-690, limits assumed, looked up): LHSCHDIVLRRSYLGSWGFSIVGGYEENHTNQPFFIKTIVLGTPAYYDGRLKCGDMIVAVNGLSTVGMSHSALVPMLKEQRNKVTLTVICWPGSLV

PARD6G, Q9BYG4 = target: T12, PARD6G, Q9BYG4
T12 sequence (Q9BYG4 153-261, limits assumed, looked up): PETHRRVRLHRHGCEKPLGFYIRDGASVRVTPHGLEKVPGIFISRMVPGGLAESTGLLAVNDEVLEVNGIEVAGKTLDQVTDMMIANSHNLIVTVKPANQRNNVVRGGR

PDZD2_6, O15018 = target: T13, PDZD2_6, O15018
T13 sequence (O15018 2745-2839, limits assumed, looked up): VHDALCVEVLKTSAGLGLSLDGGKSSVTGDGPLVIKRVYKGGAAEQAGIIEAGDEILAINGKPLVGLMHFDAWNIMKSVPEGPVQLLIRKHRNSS

Measured: pKd

Sequence of LIMK1, P53667 (P53667 155-268): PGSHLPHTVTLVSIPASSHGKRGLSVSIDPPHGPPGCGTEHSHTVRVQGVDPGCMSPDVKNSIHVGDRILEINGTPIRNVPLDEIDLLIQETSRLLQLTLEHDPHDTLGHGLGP
Sequence of CARD14, Q9BXL6 (Q9BXL6 558-663): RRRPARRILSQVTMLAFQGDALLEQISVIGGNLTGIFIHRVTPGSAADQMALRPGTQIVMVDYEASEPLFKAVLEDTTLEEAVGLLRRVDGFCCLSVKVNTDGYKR
Sequence of PTPN13_2, Q12923 (Q12923 1363-1462): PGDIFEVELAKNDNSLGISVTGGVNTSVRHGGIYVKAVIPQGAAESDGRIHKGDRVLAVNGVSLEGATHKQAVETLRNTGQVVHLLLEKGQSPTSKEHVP
Sequence of Inadl_7, Q8NI35 (Q8NI35 1219-1332): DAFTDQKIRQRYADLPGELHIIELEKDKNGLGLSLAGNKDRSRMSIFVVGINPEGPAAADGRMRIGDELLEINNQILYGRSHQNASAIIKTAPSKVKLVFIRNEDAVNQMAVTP
Sequence of RGS3, P49796-9 (P49796 other isoform, or with tags, fused parts or gaps): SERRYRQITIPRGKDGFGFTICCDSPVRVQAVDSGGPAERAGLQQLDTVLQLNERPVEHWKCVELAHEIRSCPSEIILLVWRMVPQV
Sequence of MAGI1_3, Q96QZ7 (Q96QZ7 638-725): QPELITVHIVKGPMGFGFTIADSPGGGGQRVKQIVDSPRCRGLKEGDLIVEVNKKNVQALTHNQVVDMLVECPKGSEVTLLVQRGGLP
Sequence of MAGI1_6, Q96QZ7 (Q96QZ7 1146-1238): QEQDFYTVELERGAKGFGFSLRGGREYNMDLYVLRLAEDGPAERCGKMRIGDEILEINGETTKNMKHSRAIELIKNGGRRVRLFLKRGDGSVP
Sequence of MAGI3_6, Q5TCQ9 (Q5TCQ9 1014-1103): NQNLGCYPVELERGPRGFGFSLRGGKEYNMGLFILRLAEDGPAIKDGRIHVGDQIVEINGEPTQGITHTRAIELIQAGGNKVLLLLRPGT
Sequence of PREX1_1, Q8TCU6 (Q8TCU6 608-718): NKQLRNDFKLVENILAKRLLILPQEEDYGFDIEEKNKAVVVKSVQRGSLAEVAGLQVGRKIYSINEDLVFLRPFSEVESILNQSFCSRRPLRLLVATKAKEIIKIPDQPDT
Sequence of GORASP1, Q9BQQ3 (Q9BQQ3 1-208): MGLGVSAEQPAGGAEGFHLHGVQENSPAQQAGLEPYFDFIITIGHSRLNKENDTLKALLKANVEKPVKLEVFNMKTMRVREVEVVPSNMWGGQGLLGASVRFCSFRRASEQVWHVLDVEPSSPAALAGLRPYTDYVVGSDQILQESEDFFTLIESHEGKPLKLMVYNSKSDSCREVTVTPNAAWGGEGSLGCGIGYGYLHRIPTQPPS

QQSMSSADSTQA [SARS-Cov2-N, P0DTC9]
below the threshold: all assays above
